Test [1] deals with T1, CesT^138 (no tag, co-expressed and co-purified with His6-Tir peptides) (enteropathogenic Escherichia coli (EPEC), UniProt P21244 2-138).
T1 construct: also called CesT^2-138
Kind of test: pull-down. To be noted: partners not purified.

The target in test [2] is T2, CesT (no tag, co-expressed and co-purified with His6-Tir constructs) (enteropathogenic Escherichia coli (EPEC), UniProt P21244 1-156).
T2 construct: also called full-length CesT
The experiment in a line: SEC. The settings on record: both partners purified.

Four molecules from publication PMC6114900, “Molecular basis for CesT recognition of type III secretion effectors in enteropathogenic Escherichia coli” (PLoS Pathogens, 2018) can be followed below.

T2 sequence (P21244 whole entry): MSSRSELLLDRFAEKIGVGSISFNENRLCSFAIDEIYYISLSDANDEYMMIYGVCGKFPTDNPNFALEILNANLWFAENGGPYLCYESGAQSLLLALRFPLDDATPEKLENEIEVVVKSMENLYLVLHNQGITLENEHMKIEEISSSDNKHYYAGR
T1 sequence (P21244 2-138): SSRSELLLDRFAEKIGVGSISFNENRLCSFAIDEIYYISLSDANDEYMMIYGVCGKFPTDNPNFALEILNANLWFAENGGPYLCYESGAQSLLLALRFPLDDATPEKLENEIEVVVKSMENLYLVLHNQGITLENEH

B1: His6-Tir^32-80 (domain or fragment)
chain: GGTGHLISSTGALGSRSLFSPLRNSMADSVDSRDIPGLPTNPSRLAAAT
notes: not shown: His6, N-terminal, kept
On to B1, for which the binding result in test [1] and in test [2] was “binds” in each case.

B2: His6-Tir^23-80 (domain or fragment)
chain: PSQTDGAARGGTGHLISSTGALGSRSLFSPLRNSMADSVDSRDIPGLPTNPSRLAAAT
notes: as for B1
For B2, in test [2], the binding result is “binds”.

B3: His6-Tir^35-77 (domain or fragment)
chain: GHLISSTGALGSRSLFSPLRNSMADSVDSRDIPGLPTNPSRLA
notes: as for B1
B3: in test [2], the binding result is listed as “binds”.

B4: His6-Tir^490-550 (domain or fragment)
chain: SGSGPVTGRLIGTPGQGIQSTYALLANSGGLRLGMGGLTSGGESAVSSVNAAPTPGPVRFV
notes: also called C-terminal Tir peptide; not shown: His6, N-terminal, kept
In the case of B4, in test [2], the binding result is listed as “binds”.
